Reference: article PMC10873203

Target: recombinant extracellular domain of human insulin receptor (human)
Experiment: SDS-PAGE under non-reducing and reducing conditions (Coomassie); 0.5 µg ECD-IR in Laemmli buffer with or without 2.5% 2-mercaptoethanol, 80 °C 10 min

stoichiometry N: 2
Substance: recombinant extracellular domain of human insulin receptor
